Measurements: patent US20260242735A1 (UNIVERSIT T BASEL, published 2026)

Experiments:
human CD33 P19W = human CD33 P19W (human, UniProt P20138 18-364); test: flow cytometry, mutant on cells, IgG
Protocol: (§1) An alanine scan on human CD33 was performed to the determine the residues on CD33 that are involved in binding to the antibodies investigated. […] Briefly, a mutation library of CD33 was created by high-throughput, site-directed mutagenesis. Each residue was individually mutated to alanine, with alanine codons mutated to serine. The mutant library was arrayed in 384-well microplates and transiently transfected into HEK293-T. Following transfection, cells were incubated with the indicated antibodies (IgG or Fab) at concentrations pre-determined using an independent immunofluorescence titration curve on wild type CD33. […] Binding of each antibody to each mutant clone was determined in duplicates. For each point, background fluorescence was subtracted from the raw data, which were then normalized to antibody reactivity with wild type CD33.
(§2) Antibodies were screened for binding to the human CD33 variants in IgG format. […] For each mutation, background fluorescence was subtracted from the raw data, which were then normalized to antibody reactivity with wild-type CD33.

human CD33 N20L = human CD33 N20L (human, UniProt P20138 18-364); test: flow cytometry, mutant on cells, IgG
Protocol: as §1, §2

human CD33 N20Y = human CD33 N20Y (human, UniProt P20138 18-364); test: flow cytometry, mutant on cells, IgG
Protocol: as §1, §2

human CD33 N20V = human CD33 N20V (human, UniProt P20138 18-364); test: flow cytometry, mutant on cells, IgG
Protocol: as §1, §2

human CD33 F21S = human CD33 F21S (human, UniProt P20138 18-364); test: flow cytometry, mutant on cells, IgG
Protocol: as §1, §2

human CD33 W22G = human CD33 W22G (human, UniProt P20138 18-364); test: flow cytometry, mutant on cells, IgG
Protocol: as §1, §2

human CD33 W22S = human CD33 W22S (human, UniProt P20138 18-364); test: flow cytometry, mutant on cells, IgG
Protocol: as §1, §2

human CD33 W22Q = human CD33 W22Q (human, UniProt P20138 18-364); test: flow cytometry, mutant on cells, IgG
Protocol: as §1, §2

human CD33 Q24V = human CD33 Q24V (human, UniProt P20138 18-364); test: flow cytometry, mutant on cells, IgG
Protocol: as §1, §2

human CD33 Q24I = human CD33 Q24I (human, UniProt P20138 18-364); test: flow cytometry, mutant on cells, IgG
Protocol: as §1, §2

human CD33 Q24R = human CD33 Q24R (human, UniProt P20138 18-364); test: flow cytometry, mutant on cells, IgG
Protocol: as §1, §2

human CD33 V25S = human CD33 V25S (human, UniProt P20138 18-364); test: flow cytometry, mutant on cells, IgG
Protocol: as §1, §2

human CD33 V25L = human CD33 V25L (human, UniProt P20138 18-364); test: flow cytometry, mutant on cells, IgG
Protocol: as §1, §2

human CD33 T42K = human CD33 T42K (human, UniProt P20138 18-364); test: flow cytometry, mutant on cells, IgG
Protocol: as §1, §2

human CD33 F44E = human CD33 F44E (human, UniProt P20138 18-364); test: flow cytometry, mutant on cells, IgG
Protocol: as §1, §2

human CD33 P46F = human CD33 P46F (human, UniProt P20138 18-364); test: flow cytometry, mutant on cells, IgG
Protocol: as §1, §2

human CD33 P46Y = human CD33 P46Y (human, UniProt P20138 18-364); test: flow cytometry, mutant on cells, IgG
Protocol: as §1, §2

human CD33 P46D = human CD33 P46D (human, UniProt P20138 18-364); test: flow cytometry, mutant on cells, IgG
Protocol: as §1, §2

human CD33 I47S = human CD33 I47S (human, UniProt P20138 18-364); test: flow cytometry, mutant on cells, IgG
Protocol: as §1, §2

human CD33 variant I47P = human CD33 variant I47P (human, UniProt P20138 18-364); test: flow cytometry, IgG on cells expressing the mutant
Protocol: as §1, §2

human CD33 variant P48H = human CD33 variant P48H (human, UniProt P20138 18-364); test: flow cytometry, IgG on cells expressing the mutant
Protocol: as §1, §2

human CD33 variant P48I = human CD33 variant P48I (human, UniProt P20138 18-364); test: flow cytometry, IgG on cells expressing the mutant
Protocol: as §1, §2

human CD33 variant P48W = human CD33 variant P48W (human, UniProt P20138 18-364); test: flow cytometry, IgG on cells expressing the mutant
Protocol: as §1, §2

human CD33 variant Y49T = human CD33 variant Y49T (human, UniProt P20138 18-364); test: flow cytometry, IgG on cells expressing the mutant
Protocol: as §1, §2

human CD33 variant Y50V = human CD33 variant Y50V (human, UniProt P20138 18-364); test: flow cytometry, IgG on cells expressing the mutant
Protocol: as §1, §2

human CD33 variant Y50H = human CD33 variant Y50H (human, UniProt P20138 18-364); test: flow cytometry, IgG on cells expressing the mutant
Protocol: as §1, §2

human CD33 variant Y50D = human CD33 variant Y50D (human, UniProt P20138 18-364); test: flow cytometry, IgG on cells expressing the mutant
Protocol: as §1, §2

human CD33 variant D51Y = human CD33 variant D51Y (human, UniProt P20138 18-364); test: flow cytometry, IgG on cells expressing the mutant
Protocol: as §1, §2

human CD33 variant K52G = human CD33 variant K52G (human, UniProt P20138 18-364); test: flow cytometry, IgG on cells expressing the mutant
Protocol: as §1, §2

human CD33 variant K52L = human CD33 variant K52L (human, UniProt P20138 18-364); test: flow cytometry, IgG on cells expressing the mutant
Protocol: as §1, §2

human CD33 variant M120V = human CD33 variant M120V (human, UniProt P20138 18-364); test: flow cytometry, IgG on cells expressing the mutant
Protocol: as §1, §2

human CD33 variant Y127R = human CD33 variant Y127R (human, UniProt P20138 18-364); test: flow cytometry, IgG on cells expressing the mutant
Protocol: as §1, §2

human CD33 variant I47W = human CD33 variant I47W (human, UniProt P20138 18-364); test: flow cytometry, IgG on cells expressing the mutant
Chain of human CD33 variant I47W (P20138 18-364 I47W limits assumed): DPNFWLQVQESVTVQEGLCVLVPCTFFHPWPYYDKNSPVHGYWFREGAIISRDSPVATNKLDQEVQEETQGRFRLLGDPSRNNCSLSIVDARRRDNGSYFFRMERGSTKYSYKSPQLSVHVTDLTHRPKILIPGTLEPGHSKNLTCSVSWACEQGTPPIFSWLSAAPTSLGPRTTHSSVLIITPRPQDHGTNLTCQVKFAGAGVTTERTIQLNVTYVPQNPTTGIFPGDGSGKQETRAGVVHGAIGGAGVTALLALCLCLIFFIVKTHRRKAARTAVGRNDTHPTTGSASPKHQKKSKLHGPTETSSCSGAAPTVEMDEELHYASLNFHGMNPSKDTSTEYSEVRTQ
Protocol: as §1, §2

Chain of human CD33 variant Y50V (P20138 18-364 Y50V limits assumed): as the sequence (P20138 18-364 I47W limits assumed) above, with W30I, Y33V counted along it
Chain of human CD33 variant Y50H (P20138 18-364 Y50H limits assumed): as the sequence (P20138 18-364 I47W limits assumed) above, with W30I, Y33H counted along it
Chain of human CD33 variant P48I (P20138 18-364 P48I limits assumed): as the sequence (P20138 18-364 I47W limits assumed) above, with W30I, P31I counted along it
Chain of human CD33 variant M120V (P20138 18-364 M120V limits assumed): as the sequence (P20138 18-364 I47W limits assumed) above, with W30I, M103V counted along it
Chain of human CD33 variant Y49T (P20138 18-364 Y49T limits assumed): as the sequence (P20138 18-364 I47W limits assumed) above, with W30I, Y32T counted along it
Chain of human CD33 variant P48H (P20138 18-364 P48H limits assumed): as the sequence (P20138 18-364 I47W limits assumed) above, with W30I, P31H counted along it
Chain of human CD33 variant I47P (P20138 18-364 I47P limits assumed): as the sequence (P20138 18-364 I47W limits assumed) above, with W30P counted along it
Chain of human CD33 variant Y50D (P20138 18-364 Y50D limits assumed): as the sequence (P20138 18-364 I47W limits assumed) above, with W30I, Y33D counted along it
Chain of human CD33 variant K52G (P20138 18-364 K52G limits assumed): as the sequence (P20138 18-364 I47W limits assumed) above, with W30I, K35G counted along it
Chain of human CD33 variant P48W (P20138 18-364 P48W limits assumed): as the sequence (P20138 18-364 I47W limits assumed) above, with W30I, P31W counted along it
Chain of human CD33 variant Y127R (P20138 18-364 Y127R limits assumed): as the sequence (P20138 18-364 I47W limits assumed) above, with W30I, Y110R counted along it
Chain of human CD33 variant K52L (P20138 18-364 K52L limits assumed): as the sequence (P20138 18-364 I47W limits assumed) above, with W30I, K35L counted along it
Chain of human CD33 variant D51Y (P20138 18-364 D51Y limits assumed): as the sequence (P20138 18-364 I47W limits assumed) above, with W30I, D34Y counted along it
Chain of human CD33 W22Q (P20138 18-364 W22Q limits assumed): as the sequence (P20138 18-364 I47W limits assumed) above, with W5Q, W30I counted along it
Chain of human CD33 N20Y (P20138 18-364 N20Y limits assumed): as the sequence (P20138 18-364 I47W limits assumed) above, with N3Y, W30I counted along it
Chain of human CD33 F44E (P20138 18-364 F44E limits assumed): as the sequence (P20138 18-364 I47W limits assumed) above, with F27E, W30I counted along it
Chain of human CD33 V25S (P20138 18-364 V25S limits assumed): as the sequence (P20138 18-364 I47W limits assumed) above, with V8S, W30I counted along it
Chain of human CD33 T42K (P20138 18-364 T42K limits assumed): as the sequence (P20138 18-364 I47W limits assumed) above, with T25K, W30I counted along it
Chain of human CD33 N20L (P20138 18-364 N20L limits assumed): as the sequence (P20138 18-364 I47W limits assumed) above, with N3L, W30I counted along it
Chain of human CD33 P19W (P20138 18-364 P19W limits assumed): as the sequence (P20138 18-364 I47W limits assumed) above, with P2W, W30I counted along it
Chain of human CD33 P46Y (P20138 18-364 P46Y limits assumed): as the sequence (P20138 18-364 I47W limits assumed) above, with P29Y, W30I counted along it
Chain of human CD33 F21S (P20138 18-364 F21S limits assumed): as the sequence (P20138 18-364 I47W limits assumed) above, with F4S, W30I counted along it
Chain of human CD33 I47S (P20138 18-364 I47S limits assumed): as the sequence (P20138 18-364 I47W limits assumed) above, with W30S counted along it
Chain of human CD33 W22G (P20138 18-364 W22G limits assumed): as the sequence (P20138 18-364 I47W limits assumed) above, with W5G, W30I counted along it
Chain of human CD33 P46F (P20138 18-364 P46F limits assumed): as the sequence (P20138 18-364 I47W limits assumed) above, with P29F, W30I counted along it
Chain of human CD33 Q24V (P20138 18-364 Q24V limits assumed): as the sequence (P20138 18-364 I47W limits assumed) above, with Q7V, W30I counted along it
Chain of human CD33 P46D (P20138 18-364 P46D limits assumed): as the sequence (P20138 18-364 I47W limits assumed) above, with P29D, W30I counted along it
Chain of human CD33 Q24R (P20138 18-364 Q24R limits assumed): as the sequence (P20138 18-364 I47W limits assumed) above, with Q7R, W30I counted along it
Chain of human CD33 Q24I (P20138 18-364 Q24I limits assumed): as the sequence (P20138 18-364 I47W limits assumed) above, with Q7I, W30I counted along it
Chain of human CD33 W22S (P20138 18-364 W22S limits assumed): as the sequence (P20138 18-364 I47W limits assumed) above, with W5S, W30I counted along it
Chain of human CD33 N20V (P20138 18-364 N20V limits assumed): as the sequence (P20138 18-364 I47W limits assumed) above, with N3V, W30I counted along it
Chain of human CD33 V25L (P20138 18-364 V25L limits assumed): as the sequence (P20138 18-364 I47W limits assumed) above, with V8L, W30I counted along it

Binder	Mean % WT Binding (human CD33 variant I47P)	Mean % WT Binding (human CD33 variant P48H)	Mean % WT Binding (human CD33 variant P48I)	Mean % WT Binding (human CD33 variant P48W)	Mean % WT Binding (human CD33 variant Y49T)	Mean % WT Binding (human CD33 variant Y50V)	Mean % WT Binding (human CD33 variant Y50H)	Mean % WT Binding (human CD33 variant Y50D)	Mean % WT Binding (human CD33 variant D51Y)	Mean % WT Binding (human CD33 variant K52G)	Mean % WT Binding (human CD33 variant K52L)	Mean % WT Binding (human CD33 variant M120V)	Mean % WT Binding (human CD33 variant Y127R)	Mean % WT Binding (human CD33 variant I47W)	further results
Refmab #4 (antibody, human IgG1, V domains shown, Tested in IgG format; human IgG1 Fc silent (PG-LALA)) VH: QVQLVQSGAEVKKPGESVKVSCKASGYTFTNYGMNWVKQAPGQGLEWMGWINTYTGEPTYADKFQGRVTMTTDTSTSTAYMEIRNLGGDDTAVYYCARWSWSDGYYVYFDYWGQGTSVTVSS VL: DIVMTQSPDSLTVSLGERTTINCKSSQSVLDSSTNKNSLAWYQQKPGQPPKLLLSWASTRESGIPDRFSGSGSGTDFTLTIDSPQPEDSATYYCQQSAHFPITFGQGTRLEIK	–	–	–	–	–	–	–	–	–	–	–	–	–	–	Mean % WT Binding (human CD33 P19W): 82.8 % WT binding; Mean % WT Binding (human CD33 N20L): 89.8 % WT binding; Mean % WT Binding (human CD33 N20Y): 25.7 % WT binding; Mean % WT Binding (human CD33 N20V): 118 % WT binding; Mean % WT Binding (human CD33 F21S): 118 % WT binding; Mean % WT Binding (human CD33 W22G): 105 % WT binding; Mean % WT Binding (human CD33 W22S): 103 % WT binding; Mean % WT Binding (human CD33 W22Q): 111 % WT binding; Mean % WT Binding (human CD33 Q24V): 81.5 % WT binding; Mean % WT Binding (human CD33 Q24I): 86.6 % WT binding; Mean % WT Binding (human CD33 Q24R): 98.6 % WT binding; Mean % WT Binding (human CD33 V25S): 106 % WT binding; Mean % WT Binding (human CD33 V25L): 95 % WT binding; Mean % WT Binding (human CD33 T42K): 86 % WT binding; Mean % WT Binding (human CD33 F44E): 112 % WT binding; Mean % WT Binding (human CD33 P46F): 42.4 % WT binding; Mean % WT Binding (human CD33 P46Y): 26.5 % WT binding; Mean % WT Binding (human CD33 P46D): 110 % WT binding; Mean % WT Binding (human CD33 I47S): 90.1 % WT binding
Refmab #1 (antibody, human IgG1, V domains shown, Tested in IgG format; human IgG1 (Absolute Antibody hP67.6, Cat. No. Ab00283-10.0); also called hP67.6) VH: EVQLVQSGAEVKKPGSSVKVSCKASGYTITDSNIHWVRQAPGQSLEWIGYIYPYNGGTDYNQKFKNRATLTVDNPTNTAYMELSSLRSEDTAFYYCVNGNPWLAYWGQGTLVTVSS VL: DIQLTQSPSTLSASVGDRVTITCRASESLDNYGIRFLTWFQQKPGKAPKLLMYAASNQGSGVPSRFSGSGSGTEFTLTISSLQPDDFATYYCQQTKEVPWSFGQGTKVEVK	84.5 % of WT	97.4 % of WT	107 % of WT	95.6 % of WT	108 % of WT	94.9 % of WT	103 % of WT	115 % of WT	94.4 % of WT	98.8 % of WT	97.6 % of WT	98.7 % of WT	84 % of WT	111 % of WT	–
Refmab #2 (antibody, human IgG1, V domains shown, Tested in IgG format; human IgG1 Fc silent (PG-LALA)) VH: QVQLVQSGAEVKKPGSSVKVSCKASGGTFSDYAISWVRQAPGQGLEWMGRIIPILGVADYAQKFQGRVTITADKSTRTAYMELSSLRSEDTAVYYCARNWADAFDIWGQGTMVTVSS VL: DIQLTQSPSSLSASVGDRVTITCRASQGISSVLAWYQQKPGKAPKLLIYDASSLESGVPSRFSGSGSGTDFTLTISSLQPEDFATYYCQQFDSSITFGQGTKLEIK	0.7 % of WT	81.9 % of WT	81.9 % of WT	68.8 % of WT	76.3 % of WT	126 % of WT	119 % of WT	112 % of WT	69.8 % of WT	25.4 % of WT	74.8 % of WT	95.5 % of WT	110 % of WT	0.6 % of WT	–
Refmab #3 (antibody, human IgG1, V domains shown, Tested in IgG format; human IgG1 Fc silent (PG-LALA)) VH: QVQLVQSGAEVKKPGSSVKVSCKASGYTFTDYNMHWVRQAPGQGLEWIGYIYPYNGGTGYNQKFKSKATITADESTNTAYMELSSLRSEDTAVYYCARGRPAMDYWGQGTLVTVSS VL: DIQMTQSPSSLSASVGDRVTITCRASESVDNYGISFMNWFQQKPGKAPKLLIYAASNQGSGVPSRFSGSGSGTDFTLTISSLQPDDFATYYCQQSKEVPWTFGQGTKVEIK	2.8 % of WT	87.6 % of WT	122 % of WT	96.4 % of WT	96.5 % of WT	108 % of WT	111 % of WT	100 % of WT	87.2 % of WT	106 % of WT	94.9 % of WT	51.1 % of WT	65.9 % of WT	112 % of WT	–
